Results reported in US20150118233A1 (Ablynx, published 2015).

What was measured:
Test in all cases: cell-based or functional assay
[1] = target: F protein of hRSV strain B-1 (hRSV strain B-1)
[2] = target: F protein of hRSV strain A-2 (hRSV strain A-2)
[3] = target: F protein of hRSV strain B-1 (hRSV strain B-1); remark: listed apart in the source
[4] = target: F protein of hRSV strain Long (hRSV strain Long)

B1: Nanobody 15H8 (VHH)
VHH: EVQLVESGGGLVQAGGSLRLSCAASGRSFSNYVLGWFRQAPGKEREFVAAISFRGDSAIGAPSVEGRFTISRDNAKNTGYLQMNSLVPDDTAVYYCGAGTPLNPGAYIYDWSYDYWGRGTQVTVSS
RSV neutralization IC50 [1]: 2340 nM
RSV neutralization IC50 [2]: 218 nM

B2: Nanobody 191D3 (VHH)
VHH: EVQLVESGGGLVQAGGSLRLSCEASGRTYSRYGMGWFRQAPGKEREFVAAVSRLSGPRTVYADSVKGRFTISRDNAENTVYLQMNSLKPEDTAVYTCAAELTNRNSGAYYYAWAYDYWGQGTQVTVSS
RSV neutralization IC50 [2]: 227 nM

B3: Nanobody 1E4 (VHH)
VHH: EVQLVESGGGLVQAGGSLRLSCEASGRTFSSYGMGWFRQAPGKEREFVAAVSRLSGPRTVYADSVKGRFTISRDNAENTVYLQMNSLKPEDTAVYTCAAELTNRNPGAYYYTWAYDYWGQGTQVTVSS
RSV neutralization IC50 [2]: 298 nM

B4: Nanobody 7B2 (VHH)
VHH: EVQLVESGGGLVQAGDSLRLSCAASGRTFSSYAMGWFRQAPGKEREFVAAISWSDGSTYYADSVKGRFTISRDNAKNTVYLQMNSLKPEDTAVYYCAADLTSTNPGSYIYIWAYDYWGQGTQVTVSS
RSV neutralization IC50 [1]: 2690 nM
RSV neutralization IC50 [2]: 177 nM

B5: Nanobody 191E4 (VHH)
VHH: EVQLVESGGGLVQAGGSLRLSCAASGPTFSADTMGWFRQAPGKEREFVATIPWSGGIAYYSDSVKGRFTMSRDNAKNTVDLQMNSLKPEDTALYYCAGSSRIYIYSDSLSERSYDYWGQGTQVTVSS
RSV neutralization IC50 [1]: 4330 nM

B6: Nanobody 15B3 (VHH)
VHH: EVQLVESGGGLVQPGGSLRLSCAASGLTLDYYALGWFRQAPGKEREGVSCISSSDHSTTYTDSVKGRFTISWDNAKNTLYLQMNSLKPGDTAVYYCAADPALGCYSGSYYPRYDYWGQGTQVTVSS
RSV neutralization IC50 [1]: 1270 nM

B7: Nanobody NC23 (VHH)
VHH: EVQLVESGGGLVQPGGSLRLSCAASGRTFSSIAMGWFRQAPGKEREFVAAISWSRGRTFYADSVKGRFIISRDDAANTAYLQMNSLKPEDTAVYYCAVDTASWNSGSFIYDWAYDHWGQGTQVTVSS
RSV neutralization IC50 [2]: 109 nM

B8: Nanobody NC41 (VHH)
VHH: EVQLVESGGGLVQAGGSLSISCAASGGSLSNYVLGWFRQAPGKEREFVAAINWRGDITIGPPNVEGRFTISRDNAKNTGYLQMNSLAPDDTAVYYCGAGTPLNPGAYIYDWSYDYWGRGTQVTVSS
Neutralization IC50 (first assay) [3]: 4710 nM
Neutralization IC50 (second assay) [3]: 3290 nM
RSV neutralization IC50 [1]: 4000 nM
RSV neutralization IC50 [2]: 26 nM

B9: NC41v06 (VHH)
VHH: EVQLLESGGGLVQPGGSLRLSCAASGGSLSNYVLGWFRQAPGKGREFVAAINWRDDITIGPPNVEGRFTISRDNAKNTLYLQMNSLRPEDTAVYYCGAGTPLNPGAYIYDWSYDYWGQGTLVTVSS
Neutralization IC50 (first assay) [3]: 806 nM

B10: NC41v17 (VHH)
VHH: EVQLLESGGGLVQPGGSLRLSCAASGGSLSNYVLGWFRQAPGKGREFVAAINWRGDITIGPPNVEGRFTISRDNSKNTLYLQMNSLRPEDTAVYYCGAGTPLNPGAYIYDWSYDYWGQGTLVTVSS
Neutralization IC50 (first assay) [3]: 677 nM
Neutralization IC50 (second assay) [3]: 346 nM
Neutralization IC50 (first assay) [4]: 249 nM
Neutralization IC50 (second assay) [4]: 149 nM
